The target of the test is T1, FtsY (bacterial SRP receptor), wild type, as used in the GTPase assays (Escherichia coli, UniProt P10121 1-497).
T1 sequence (looked up): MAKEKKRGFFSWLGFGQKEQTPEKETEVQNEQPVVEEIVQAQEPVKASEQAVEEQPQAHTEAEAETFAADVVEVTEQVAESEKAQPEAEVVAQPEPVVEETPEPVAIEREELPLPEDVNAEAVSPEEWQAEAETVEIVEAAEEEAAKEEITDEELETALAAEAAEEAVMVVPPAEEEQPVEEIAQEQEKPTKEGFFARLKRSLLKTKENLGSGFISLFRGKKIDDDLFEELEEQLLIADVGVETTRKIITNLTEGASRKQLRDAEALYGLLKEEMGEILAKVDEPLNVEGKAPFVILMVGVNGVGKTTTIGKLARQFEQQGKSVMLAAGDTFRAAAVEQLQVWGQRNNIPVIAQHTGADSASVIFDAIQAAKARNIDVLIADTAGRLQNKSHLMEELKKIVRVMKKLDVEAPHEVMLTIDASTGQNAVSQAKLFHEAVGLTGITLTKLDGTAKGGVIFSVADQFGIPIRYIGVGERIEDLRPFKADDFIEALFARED
Briefly: GTPase inhibition.

B1: SRP with Ffh A144W (bound to the 4.5S SRP RNA) (natural protein, Escherichia coli, UniProt P0AGD7 1-453, looked up)
chain: MFDNLTDRLSRTLRNISGRGRLTEDNVKDTLREVRMALLEADVALPVVREFINRVKEKAVGHEVNKSLTPGQEFVKIVRNELVAAMGEENQTLNLAAQPPAVVLMAGLQGAGKTTSVGKLGKFLREKHKKKVLVVSADVYRPAWIKQLETLAEQVGVDFFPSDVGQKPVDIVNAALKEAKLKFYDVLLVDTAGRLHVDEAMMDEIKQVHASINPVETLFVVDAMTGQDAANTAKAFNEALPLTGVVLTKVDGDARGGAALSIRHITGKPIKFLGVGEKTEALEPFHPDRIASRILGMGDVLSLIEDIESKVDRAQAEKLASKLKKGDGFDLNDFLEQLRQMKNMGGMASLMGKLPGMGQIPDNVKSQMDDKVLVRMEAIINSMTMKERAKPEIIKGSRKRRIAAGCGMQVQDVNRLLKQFDDMQRMMKKMKKGGMAKMMRSMKGMMPPGFPGR
With B1, the Ki amounted to 260 nM.

The values are drawn from PMC2064468 (The Journal of Cell Biology, 2007).
